Measurements: patent US20240301442A1 (Regeneron, published 2024)
Several values for one entry are separate records, joined by “and”; a condition that tells them apart may be missing. Equal values may be shown once.

Tests used:
[1] = target: PcrV of P. aeruginosa strain 6077 (on live bacteria) (Pseudomonas aeruginosa strain 6077); experiment: cell-based or functional assay
[2] = target: Zika virus envelope (Env) protein on MR766 virus (Zika virus MR766, UniProt Q32ZE1 291-790); experiment: cell-based or functional assay
Zika (prM80E)-mmh = target: T1, Zika (prM80E)-mmh (Zika virus); experiment: ELISA, Zika (prM80E)-mmh coated, mouse serum, anti-human IgG HRP detection
T1 construct: domain: prM80E; also called Zika envelope protein; Lot #REGN4233-L4

[3] = target: recombinant full-length P. aeruginosa PcrV (GenScript) (Pseudomonas aeruginosa)

B1: REGN4446 anti-Zika antibody expressed in mouse serum from episomal AAV2/8.CASI.REGN4446 HC T2A RORss LC (antibody, V domains shown)
VH: QVQLVESGGGVVQPGRSLRLSCAASGFTFNYYGMHWVRQAPGKGLEWVAVISYDGTNKYYADSVKGRFTTSRDNSKNTLYLQMNSLRAEDTALYYCARDRGGRFDYWGQGIQVTVSS
VL: EIVLTQSPDTLSLSPGERATLSCRASQSVSSNYLAWYQQKPGQAPRLLIYGASSRATGIPDRFSGSGSGTDFTLTISRLEPEDFAVYYCQRYGTSPLTFGGGTKVEIKR
notes: also called CASI HC T2A RORss LC; AAV2/8.CASI.REGN4446 HC T2A LC
[1]
  Neutralization IC50: ~8.89 pM
[2]
  Neutralization EC50: 469 pM and 605 pM
Zika (prM80E)-mmh
  EC50: 296 pM and 521 pM
[3]
  EC50: 204000 pM
